Assay results taken from patent US20190338048A1.
Read-outs that look alike come from different tables or passages of the source. Each block holds one substance with its values, some of them ahead of it.

Columns and labels:
[1] = target: CAT-2200 lambda light chain K129T_V133D; experiment: LCCA, SPR
[2] = target: Pertuzumab kappa light chain S131K_V133G_S176R_T178A; experiment: LCCA, SPR
[3] = target: Pertuzumab kappa light chain S131R_V133G_S176R_T178A; experiment: LCCA, SPR
[4] = target: CAT-2200 lambda light chain K129T_V133D; experiment: LCCA, SPR; remark: listed apart in the source
[5] = target: CAT-2200 heavy chain Fab construct (H1) Q39K; experiment: LCCA, SPR tag read-out
[6] = target: Pertuzumab kappa light chain P44F_S131R_V133G_S176R; experiment: LCCA, SPR tag read-out
[7] = target: CAT-2200 lambda light chain S122D_K129T_S180E; experiment: LCCA
[8] = target: Pertuzumab kappa light chain S121K_Q124R_Q160K_T178R; experiment: LCCA
[9] = target: Pertuzumab kappa light chain S121K_Q124R_T178R; experiment: LCCA
[10] = target: Pertuzumab kappa light chain Q124E_V133G_S176D_T178D; experiment: LCCA
[11] = target: CAT-2200 lambda light chain E124Q_T131R; experiment: LCCA, SPR tag read-out
[12] = target: Pertuzumab kappa light chain P44F_V133G_S176D_T180E; experiment: LCCA, SPR tag read-out
[13] = target: Pertuzumab kappa light chain P44F_V133G_S176D_T180E; experiment: LCCA, SPR tag read-out; remark: listed apart in the source
[14] = target: Recombinant human IL-17A (human) (UniProt Q16552); experiment: SPR, IL-17A immobilised, purified Fab injected
[15] = target: Recombinant human IL-17A (human) (UniProt Q16552); experiment: SPR
[16] = target: Pertuzumab kappa light chain Q124R_L135A_Q160K_T178R; experiment: LCCA
[17] = target: CAT-2200 Fab heavy chain S188K; experiment: LCCA
[18] = target: Pertuzumab kappa light chain Q124R_Q160R_S176A_T178R; experiment: LCCA, SPR
[19] = target: Pertuzumab kappa light chain Q124R_S176A_T178R; experiment: LCCA, SPR
[20] = target: Pertuzumab kappa light chain S131R_V133S_L135K; experiment: LCCA, SPR
[21] = target: CAT-2200 heavy chain Fab construct (H1) S186R; experiment: LCCA, SPR tag read-out
[22] = target: Pertuzumab kappa light chain V133G_S176D_T178E; experiment: LCCA, SPR
[23] = target: Pertuzumab kappa light chain V133G_S176D_T180E; experiment: LCCA, SPR
[24] = target: CAT-2200 lambda light chain E124Q_T131R; experiment: LCCA, SPR
[25] = target: Pertuzumab kappa light chain V133G_S176D_T178E; experiment: LCCA, SPR; remark: listed apart in the source
[26] = target: Pertuzumab kappa light chain V133G_S176D_T180E; experiment: LCCA, SPR; remark: listed apart in the source
[27] = target: CAT-2200 lambda light chain E124Q_T131K; experiment: LCCA, SPR
[28] = target: Pertuzumab kappa light chain V133G_L135W_S176D_T180E; experiment: LCCA, SPR tag read-out
[29] = target: Pertuzumab kappa light chain V133G_L135W_S176D_T180E; experiment: LCCA, SPR tag read-out; remark: listed apart in the source
[30] = target: Pertuzumab kappa light chain S121K_Q124E_V133D; experiment: LCCA, SPR tag read-out
[31] = target: CAT-2200 lambda light chain T116F_S176F (L1), N-terminal FLAG tag; experiment: LCCA, SPR of light chain tags
[32] = target: Pertuzumab kappa light chain V133A (L2), N-terminal HA tag; experiment: LCCA, SPR of light chain tags
[33] = target: Pertuzumab kappa light chain P44F_Q124R_T178R; experiment: LCCA, SPR tag read-out
[34] = target: Pertuzumab kappa light chain Q124K_L135A_T178R; experiment: LCCA

Chain of Recombinant human IL-17A (human) (Q16552 20-155 limits assumed): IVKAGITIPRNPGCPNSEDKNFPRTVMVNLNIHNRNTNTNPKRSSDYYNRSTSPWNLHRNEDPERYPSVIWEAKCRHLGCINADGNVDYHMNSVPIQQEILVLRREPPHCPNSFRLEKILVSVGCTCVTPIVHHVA

H2L2:H2L1 normalized median ratio [1]: 16% | H2L2:H2L1 normalized median ratio [2]: 84% | H2L2:H2L1 normalized median scalar value ln(r1/f1) [2]: 1.69 | H2L2:H2L1 normalized median ratio [3]: 88% | H2L2:H2L1 normalized median scalar value ln(r1/f1) [3]: 2.04 | H2L2:H2L1 normalized median ratio [4]: 12%
Substance: Pertuzumab Fab heavy chain L124E_K145T_Q179E_S186I_S188W

H1L1:H1L2 normalized median scalar value ln(r1/f1) [5]: 0.61
Substance: CAT-2200 lambda light chain construct (L1) Q38E, FLAG-tagged

H1L1:H1L2 normalized median scalar value ln(r1/f1) [5]: 0.91
Substance: CAT-2200 lambda light chain construct (L1) Q38D, FLAG-tagged

H2L2:H2L1 median scalar value [6]: 3.9 ln(ratio) | H2L2:H2L1 normalized median ratio [6]: 97%
Substance: Pertuzumab Fab heavy chain L45P_L124E_K145T_Q179E

H2L2:H2L1 normalized median ratio [7]: 28% | H2L2:H2L1 median scalar value [8]: -0.24 ln | H2L2:H2L1 median scalar value [9]: 2.19 ln | H2L2:H2L1 normalized median ratio [9]: 72%
Substance: Pertuzumab Fab heavy chain L143E_K145T_K228D

H2L2:H2L1 median scalar value [10]: -0.29 ln
Substance: Pertuzumab Fab heavy chain L124K_S188K

H2L2:H2L1 normalized median ratio [11]: 14% | H2L2:H2L1 median scalar value [12]: 1.45 ln(ratio) | H2L2:H2L1 normalized median ratio [12]: 81% | H2L2:H2L1 median scalar value [13]: 1.84 ln(ratio) | H2L2:H2L1 normalized median ratio [13]: 86%
Substance: Pertuzumab Fab heavy chain L45P_L124R_Q179K

Kd [14]: 0.24 nM | Change in KD of H1L1 Fab vs wild type (log(KD) units) [15]: -0.056
Substance: CAT-2200 Fab, H1 Q179K / L1 K129T_S180E

H2L2:H2L1 median scalar value [16]: -0.23 ln
Substance: Pertuzumab Fab heavy chain L143E_K145T_V190F

H1L1:H1L2 median scalar value (ln(H1L1:H1L2)) [17]: 1.8
Substance: CAT-2200 lambda light chain K129T_S176E_Y178E

H2L2:H2L1 normalized median scalar value ln(r1/f1) [18]: 1.42 | H2L2:H2L1 normalized median scalar value ln(r1/f1) [19]: 2.8
Substance: Pertuzumab Fab heavy chain L143E_K145T_Q179E_S186I_S188W

H2L2:H2L1 normalized median ratio [1]: 20% | H2L2:H2L1 normalized median ratio [20]: 80% | H2L2:H2L1 normalized median scalar value ln(r1/f1) [20]: 1.38
Substance: Pertuzumab Fab heavy chain L124E_K145T_S186E

H1L1:H1L2 normalized median scalar value ln(r1/f1) [21]: 1.94
Substance: CAT-2200 lambda light chain construct (L1) K129T_S180E, FLAG-tagged

H2L2:H2L1 normalized median ratio [1]: 15% | H2L2:H2L1 normalized median ratio [18]: 85% | H2L2:H2L1 normalized median scalar value ln(r1/f1) [18]: 1.71 | H2L2:H2L1 normalized median scalar value ln(r1/f1) [19]: 2.83
Substance: Pertuzumab Fab heavy chain L143E_K145T_Q179E_S188W

H2L2:H2L1 normalized median scalar value ln(r1/f1) [22]: 1.22 | H2L2:H2L1 normalized median scalar value ln(r1/f1) [23]: 1.32 | H2L2:H2L1 normalized median ratio [24]: 21% | H2L2:H2L1 normalized median scalar value ln(r1/f1) [25]: 1.12 | H2L2:H2L1 normalized median scalar value ln(r1/f1) [26]: 1.47 | H2L2:H2L1 normalized median ratio [27]: 25% | H2L2:H2L1 median scalar value [28]: 0 ln(ratio) | H2L2:H2L1 median scalar value [29]: 0 ln(ratio)
Substance: Pertuzumab Fab heavy chain L124R_S186K

H1L1:H1L2 median scalar value (ln(H1L1:H1L2)) [17]: 1.01
Substance: CAT-2200 lambda light chain S176E_Y178E

Kd [14]: 0.26 nM | Change in KD of H1L1 Fab vs wild type (log(KD) units) [15]: -0.088
Substance: CAT-2200 Fab, H1 S186R / L1 K129T_S180E

H2L2:H2L1 median scalar value [30]: -0.5 ln(ratio)
Substance: Pertuzumab Fab heavy chain S186K_K228D

H2L2:H2L1 normalized median ratio [1]: 9% | H2L2:H2L1 normalized median ratio [2]: 91% | H2L2:H2L1 normalized median scalar value ln(r1/f1) [2]: 2.31 | H2L2:H2L1 normalized median ratio [3]: 96% | H2L2:H2L1 normalized median scalar value ln(r1/f1) [3]: 3.12 | H2L2:H2L1 normalized median ratio [4]: 4%
Substance: Pertuzumab Fab heavy chain L124E_K145T_Q179E_S188W

H2L2:H2L1 normalized median ratio [31]: 28% | H2L2:H2L1 normalized median ratio [32]: 72% | H2L2:H2L1 normalized median scalar value ln(r1/f1) [32]: 0.93
Substance: Pertuzumab Fab heavy chain S188F (H2), ABD2-His6 tagged

H2L2:H2L1 median scalar value [33]: 3.81 ln(ratio) | H2L2:H2L1 normalized median ratio [33]: 98%
Substance: Pertuzumab Fab heavy chain L45P_L143E_K145T_Q179E

H2L2:H2L1 median scalar value [10]: 0.54 ln
Substance: Pertuzumab Fab heavy chain L124R_S188K

H2L2:H2L1 median scalar value [30]: -0.18 ln(ratio)
Substance: Pertuzumab Fab heavy chain L143I_S186K_K228D

H2L2:H2L1 median scalar value [34]: -0.51 ln
Substance: Pertuzumab Fab heavy chain L143E_K145T_Q179E_S188F_V190F
